The values below come from publication PMC6747400, “Mismatch Recognition by Saccharomyces cerevisiae Msh2-Msh6: Role of Structure and Dynamics”.

The target in data set [1] is T1, Msh2;Msh6 (Saccharomyces cerevisiae;Saccharomyces …, UniProt P25847;Q03834 1-964;1-1242, |). Nature of the data set: fluorescence anisotropy; Fluorescence/FRET: 10 mM sodium phosphate pH 7.5, 100 mM NaCl, 5 mM MgCl2, 10 C (10 nM DNA for anisotropy); EMSA: 20 mM Tris-Cl pH 7.5, 100 mM NaCl, 5 mM MgCl2, 2% ficoll, 4 C, 10 nM DNA. The conditions noted are these: protein: recombinant;recombinant, tags: ;, copies: 1;1, blunt.

Data set [2] deals with T1, Msh2;Msh6. The data set is described as follows: fluorescence anisotropy; Figure S2 legend gives 92.1 ± 13.9; Fluorescence/FRET: 10 mM sodium phosphate pH 7.5, 100 mM NaCl, 5 mM MgCl2, 10 C (10 nM DNA for anisotropy); EMSA: 20 mM Tris-Cl pH 7.5, 100 mM NaCl, 5 mM MgCl2, 2% ficoll, 4 C, 10 nM DNA. The note with it: protein: recombinant;recombinant; tags: ;; copies: 1;1; label: 5' Alexa Fluor 647 on strand 1; blunt homoduplex.

Data set [3] addresses T1, Msh2;Msh6. The data set is described as follows: fluorescence anisotropy; text gives error 6.9; Fluorescence/FRET: 10 mM sodium phosphate pH 7.5, 100 mM NaCl, 5 mM MgCl2, 10 C (10 nM DNA for anisotropy); EMSA: 20 mM Tris-Cl pH 7.5, 100 mM NaCl, 5 mM MgCl2, 2% ficoll, 4 C, 10 nM DNA. The conditions noted are these: protein: recombinant;recombinant; tags: ;; copies: 1;1; label: 6-MI internal; blunt, 6-MI:A mismatch.

The target of data set [4] is T1, Msh2;Msh6. The data set is described as follows: fluorescence intensity; Fluorescence/FRET: 10 mM sodium phosphate pH 7.5, 100 mM NaCl, 5 mM MgCl2, 10 C (10 nM DNA for anisotropy); EMSA: 20 mM Tris-Cl pH 7.5, 100 mM NaCl, 5 mM MgCl2, 2% ficoll, 4 C, 10 nM DNA. The conditions noted are these: protein: recombinant;recombinant, tags: ;, copies: 1;1, label: 6-MI internal, blunt.

In data set [5] the target is T1, Msh2;Msh6. Nature of the data set: fluorescence anisotropy; Table 1 prints this value in the intensity column of +T_6-MI; Fluorescence/FRET: 10 mM sodium phosphate pH 7.5, 100 mM NaCl, 5 mM MgCl2, 10 C (10 nM DNA for anisotropy); EMSA: 20 mM Tris-Cl pH 7.5, 100 mM NaCl, 5 mM MgCl2, 2% ficoll, 4 C, 10 nM DNA. The conditions noted are these: protein: recombinant;recombinant; tags: ;; copies: 1;1; label: 5' Alexa Fluor 594 on strand 1; blunt, unpaired T14 in strand 1.

T1 sequence (P25847 whole entry, chain 1 of 2): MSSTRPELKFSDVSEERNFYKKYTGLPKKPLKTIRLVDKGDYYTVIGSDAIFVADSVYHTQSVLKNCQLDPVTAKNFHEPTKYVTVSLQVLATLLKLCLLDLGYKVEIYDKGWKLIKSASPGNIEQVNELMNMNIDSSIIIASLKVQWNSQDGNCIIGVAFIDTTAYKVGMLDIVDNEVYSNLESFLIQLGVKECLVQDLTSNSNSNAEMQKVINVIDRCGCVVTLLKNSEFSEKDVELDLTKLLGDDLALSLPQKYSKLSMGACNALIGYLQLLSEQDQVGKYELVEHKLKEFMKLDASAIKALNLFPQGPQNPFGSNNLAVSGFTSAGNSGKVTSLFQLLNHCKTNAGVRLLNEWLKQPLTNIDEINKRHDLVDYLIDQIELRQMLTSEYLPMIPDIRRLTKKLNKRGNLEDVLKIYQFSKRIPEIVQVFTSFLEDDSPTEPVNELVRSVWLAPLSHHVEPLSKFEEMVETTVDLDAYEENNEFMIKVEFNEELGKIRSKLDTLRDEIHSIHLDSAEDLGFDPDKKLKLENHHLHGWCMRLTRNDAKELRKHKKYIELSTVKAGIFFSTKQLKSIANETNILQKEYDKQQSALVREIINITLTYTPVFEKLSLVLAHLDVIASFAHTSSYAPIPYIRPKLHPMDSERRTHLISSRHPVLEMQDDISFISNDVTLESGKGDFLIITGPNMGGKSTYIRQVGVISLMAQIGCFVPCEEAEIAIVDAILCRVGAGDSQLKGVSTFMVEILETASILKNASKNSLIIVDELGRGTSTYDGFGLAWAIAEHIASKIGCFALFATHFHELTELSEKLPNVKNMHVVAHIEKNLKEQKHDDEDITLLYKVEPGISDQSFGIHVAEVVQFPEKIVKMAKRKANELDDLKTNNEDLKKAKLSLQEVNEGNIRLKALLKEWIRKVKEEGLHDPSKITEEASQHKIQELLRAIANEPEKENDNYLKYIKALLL
T1 sequence (Q03834 whole entry, chain 2 of 2): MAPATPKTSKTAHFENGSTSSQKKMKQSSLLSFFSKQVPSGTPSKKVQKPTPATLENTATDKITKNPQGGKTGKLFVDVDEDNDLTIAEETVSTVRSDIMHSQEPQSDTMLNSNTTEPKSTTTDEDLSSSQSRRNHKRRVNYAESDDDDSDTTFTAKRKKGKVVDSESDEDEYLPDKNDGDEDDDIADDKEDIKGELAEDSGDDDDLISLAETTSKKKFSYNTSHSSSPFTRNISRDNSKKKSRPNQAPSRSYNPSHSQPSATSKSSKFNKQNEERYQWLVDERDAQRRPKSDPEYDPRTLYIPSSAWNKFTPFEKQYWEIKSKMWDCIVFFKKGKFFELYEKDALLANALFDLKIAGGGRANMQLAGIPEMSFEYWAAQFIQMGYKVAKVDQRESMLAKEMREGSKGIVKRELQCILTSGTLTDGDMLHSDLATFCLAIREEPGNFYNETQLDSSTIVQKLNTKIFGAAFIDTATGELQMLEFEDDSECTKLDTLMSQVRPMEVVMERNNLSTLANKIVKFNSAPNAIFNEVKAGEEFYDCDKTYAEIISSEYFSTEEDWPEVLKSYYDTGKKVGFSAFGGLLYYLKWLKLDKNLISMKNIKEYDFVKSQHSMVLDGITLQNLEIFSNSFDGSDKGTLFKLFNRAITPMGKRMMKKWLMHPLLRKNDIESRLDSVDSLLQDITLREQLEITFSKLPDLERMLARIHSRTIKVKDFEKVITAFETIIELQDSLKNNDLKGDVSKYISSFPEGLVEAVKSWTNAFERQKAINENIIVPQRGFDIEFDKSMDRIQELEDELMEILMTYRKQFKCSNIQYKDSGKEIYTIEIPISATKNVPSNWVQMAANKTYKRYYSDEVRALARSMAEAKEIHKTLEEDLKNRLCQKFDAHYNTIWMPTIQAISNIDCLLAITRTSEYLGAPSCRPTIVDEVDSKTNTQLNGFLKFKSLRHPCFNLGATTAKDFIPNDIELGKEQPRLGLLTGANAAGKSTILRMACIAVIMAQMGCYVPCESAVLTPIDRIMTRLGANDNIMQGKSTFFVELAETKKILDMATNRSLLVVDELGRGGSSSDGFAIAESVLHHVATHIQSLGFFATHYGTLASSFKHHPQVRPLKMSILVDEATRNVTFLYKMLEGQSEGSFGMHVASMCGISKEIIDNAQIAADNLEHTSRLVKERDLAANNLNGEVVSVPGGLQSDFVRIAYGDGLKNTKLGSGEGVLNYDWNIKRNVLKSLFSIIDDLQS

B1: 6-MI:C (dsDNA)
DNA 1: TATGCAGTCACTATGAATCAACTACTTAGATGGT
DNA 2: ACCATCTAAGTAGTTGATTCATAGTGACTGCATA
modifications: 6-MI replaces G15 of strand 1 (F, written G)
As to B1, the Kd in the data set with Msh2;Msh6 [1] (label: 6-MI internal, 34 bp homoduplex) is 122 ± 12.1 nM.

B2: G:C_AF647 (dsDNA)
DNA 1: TATGCAGTCACTATGAATCAACTACTTAGATGGT
DNA 2: ACCATCTAAGTAGTTGATTCATAGTGACTGCATA
modifications: 5' amino C6 on strand 1
Regarding B2, in the data set with Msh2;Msh6 [2], the dissociation constant (Kd) was found to be 106 ± 13.9 nM.

B3: +T_6-MI (dsDNA)
DNA 1: TATGCAGTCACTATGAATCAACTACTTAGATGGT
DNA 2: ACCATCTAAGTAGTTGATTCTAGTGACTGCATA
modifications: 6-MI replaces G15 of strand 1 (F, written G)
As for B3, the Kd with Msh2;Msh6 [1] (label: 6-MI internal, unpaired T14 in strand 1 (34/33 nt)) turned out to be 16 ± 2.9 nM.

B4: 6-MI:G (dsDNA)
DNA 1: TATGCAGTCACTATGAATCAACTACTTAGATGGT
DNA 2: ACCATCTAAGTAGTTGATTGATAGTGACTGCATA
modifications: 6-MI replaces G15 of strand 1 (F, written G)
B4: the Kd with Msh2;Msh6 [1] (label: 6-MI internal, 6-MI:G mismatch) worked out at 10.4 ± 5.8 nM.

B5: 6-MI:A (dsDNA)
DNA 1: TATGCAGTCACTATGAATCAACTACTTAGATGGT
DNA 2: ACCATCTAAGTAGTTGATTAATAGTGACTGCATA
modifications: 6-MI replaces G15 of strand 1 (F, written G)
B5: the Kd with Msh2;Msh6 [3] is 25.8 ± 12.3 nM.

B6: A:A_6-MI (dsDNA)
DNA 1: TATGCAGTCACTATGAATCAACTACATAGATGGT
DNA 2: ACCATCTAAGTAGTTGATTCATAGTGACTGCATA
modifications: 6-MI replaces G10 of strand 2 (F, written G)
For B6, the dissociation constant Kd was determined as 11.3 ± 3.1 nM in the data set with Msh2;Msh6 [1] (label: 6-MI internal, A26:A mismatch) and 10.4 ± 2.4 nM in the data set with Msh2;Msh6 [4] (A26:A mismatch).

B7: T:T_6-MI (dsDNA)
DNA 1: TATGCAGTCACTATGAATCAACTACTTAGATGGT
DNA 2: ACCATCTAAGTAGTTGATTCTTAGTGACTGCATA
modifications: 6-MI replaces G15 of strand 1 (F, written G)
For the molecule B7, the dissociation constant (Kd) with Msh2;Msh6 [1] (label: 6-MI internal, T14:T mismatch) turned out to be 77.5 ± 20 nM.

B8: +T_AF594 (dsDNA)
DNA 1: TATGCAGTCACTATGAATCAACTACTTAGATGGT
DNA 2: ACCATCTAAGTAGTTGATTCTAGTGACTGCATA
modifications: 5' amino C6 on strand 1
B8: in the data set with Msh2;Msh6 [5], the Kd came out at 18.1 ± 2.6 nM.

B9: G:G end-labeled (dsDNA)
DNA 1: TATGCAGTCACTATGAATCAACTACTTAGATGGT
DNA 2: ACCATCTAAGTAGTTGATTGATAGTGACTGCATA
modifications: 5' amino C6
As to B9, the equilibrium dissociation constant (Kd) with Msh2;Msh6 [1] (label: Alexa Fluor 594 or 647, G15:G mismatch) amounted to 15.6 ± 3.4 nM.

B10: T:C_6-MI (dsDNA)
DNA 1: TATGCAGTCACTATGAATCAACTACTTAGATGGT
DNA 2: ACCATCTAAGTAGTTGATTCCTAGTGACTGCATA
modifications: 6-MI replaces G15 of strand 1 (F, written G)
Turning to B10, the Kd with Msh2;Msh6 [1] (label: 6-MI internal, T14:C mismatch) was 113 ± 18.7 nM.

B11: 6-MI_A:A (dsDNA)
DNA 1: TATGCAGTCACTATGAATCAACTACTTAGATGGT
DNA 2: ACCATCTAAGTAGTTGATACATAGTGACTGCATA
modifications: 6-MI replaces G15 of strand 1 (F, written G)
As for B11, the dissociation constant Kd with Msh2;Msh6 [1] (label: 6-MI internal, A16:A mismatch) worked out at 7.9 ± 2 nM; in the data set with Msh2;Msh6 [4] (A16:A mismatch), 19.1 ± 3.5 nM.

B12: 6-MI:T (dsDNA)
DNA 1: TATGCAGTCACTATGAATCAACTACTTAGATGGT
DNA 2: ACCATCTAAGTAGTTGATTTATAGTGACTGCATA
modifications: 6-MI replaces G15 of strand 1 (F, written G)
For B12, the Kd in the data set with Msh2;Msh6 [1] (label: 6-MI internal, 6-MI:T mismatch) was 13.7 ± 3.4 nM.

B13: T:G_6-MI (dsDNA)
DNA 1: TATGCAGTCACTATGAATCAACTACTTAGATGGT
DNA 2: ACCATCTAAGTAGTTGATTCGTAGTGACTGCATA
modifications: 6-MI replaces G15 of strand 1 (F, written G)
Regarding B13, the equilibrium dissociation constant (Kd) with Msh2;Msh6 [1] (label: 6-MI internal, T14:G mismatch) was 25.9 ± 1.2 nM.

B14: 6-MI_A:G (dsDNA)
DNA 1: TATGCAGTCACTATGAATCAACTACTTAGATGGT
DNA 2: ACCATCTAAGTAGTTGATGCATAGTGACTGCATA
modifications: 6-MI replaces G15 of strand 1 (F, written G)
B14: the dissociation constant (Kd) with Msh2;Msh6 [1] (label: 6-MI internal, A16:G mismatch) came out at 9 ± 2.8 nM; in the data set with Msh2;Msh6 [4] (A16:G mismatch), 11.8 ± 2.8 nM.

B15: G:T_AF594 (dsDNA)
DNA 1: TATGCAGTCACTATGAATCAACTACTTAGATGGT
DNA 2: ACCATCTAAGTAGTTGATTTATAGTGACTGCATA
modifications: 5' amino C6 on strand 1
On to B15, for which, in the data set with Msh2;Msh6 [1] (label: 5' Alexa Fluor 594 on strand 1, G15:T mismatch), the Kd is 13.3 ± 3.9 nM.

B16: 6-MI_A:C (dsDNA)
DNA 1: TATGCAGTCACTATGAATCAACTACTTAGATGGT
DNA 2: ACCATCTAAGTAGTTGATCCATAGTGACTGCATA
modifications: 6-MI replaces G15 of strand 1 (F, written G)
Regarding B16, the equilibrium dissociation constant (Kd) is 13.3 ± 3.6 nM with Msh2;Msh6 [1] (label: 6-MI internal, A16:C mismatch) and 17.1 ± 4.3 nM with Msh2;Msh6 [4] (A16:C mismatch).
